Data as given in patent publication US20090253630A1 (Eli Lilly, published 2009).
Groups on a side chain read outwards from the residue. No end group written: not given here. CO‑CH2 = CO-CH2 linker joining mPEG to the Lys side chain

Legend:
[1] = molecular target: PTHR-emGFP expressed in transfected HEK 293 cells; test: cell-based or functional assay
[2] = molecular target: T1, PTH receptor (PTHR1) on SaOS-2 osteosarcoma cells (UniProt Q03431 27-593, limits assumed); test: cell-based or functional assay
T1 sequence (looked up): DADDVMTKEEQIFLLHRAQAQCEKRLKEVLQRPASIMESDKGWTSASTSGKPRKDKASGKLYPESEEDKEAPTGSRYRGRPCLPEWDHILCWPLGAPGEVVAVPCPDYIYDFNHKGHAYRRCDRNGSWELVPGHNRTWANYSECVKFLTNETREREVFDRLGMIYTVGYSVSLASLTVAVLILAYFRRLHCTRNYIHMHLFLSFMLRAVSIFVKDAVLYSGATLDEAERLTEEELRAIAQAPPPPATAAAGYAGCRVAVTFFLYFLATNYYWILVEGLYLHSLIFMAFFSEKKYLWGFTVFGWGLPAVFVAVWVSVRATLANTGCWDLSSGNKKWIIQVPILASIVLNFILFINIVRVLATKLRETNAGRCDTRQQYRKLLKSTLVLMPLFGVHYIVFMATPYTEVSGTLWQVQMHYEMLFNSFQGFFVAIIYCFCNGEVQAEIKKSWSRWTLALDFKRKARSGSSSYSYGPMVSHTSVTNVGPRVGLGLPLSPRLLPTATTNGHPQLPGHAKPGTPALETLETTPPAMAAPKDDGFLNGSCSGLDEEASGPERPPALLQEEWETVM

| Binder | PTHR1 internalization at 20 min, 100 nM compound, percent of vehicle only control (baseline=100%) [1] | PTHR1 internalization at 40 min, 100 nM compound, percent of vehicle only control (baseline=100%) [1] | PTHR1 internalization at 60 min, 100 nM compound, percent of vehicle only control (baseline=100%) [1] | PTHR1 internalization at 180 min, 100 nM compound, percent of vehicle only control (baseline=100%) [1] | Average EC50 (nM) (n = 2), cAMP induction in SaOS-2 cells (HTRF) [2] |
| --- | --- | --- | --- | --- | --- |
| SVSEIQLMHNLGRHLASMERVEWLRK([CO‑CH2-mPEG 5 kD])LLQDVHNF-NH2 (also: trifluoroacetate salt) [SEQ ID NO: 1 with 5 kD mPEG] | 127 % of vehicle only control | 93 % of vehicle only control | 91 % of vehicle only control | 92 % of vehicle only control |  |
| SVSEIQLMHNLGRHLASMERVEWLRK([CO‑CH2-mPEG 2 kD])LLQDVHNF-NH2 (also: trifluoroacetate salt) [SEQ ID NO: 1 with 2 kD mPEG] | 160 % of vehicle only control | 120 % of vehicle only control | 104 % of vehicle only control | 102 % of vehicle only control | 7.7 |
| SVSEIQLMHNLGRHLASMERVEWLRKLLQDVHNF (not fully specified (C-terminus)) [SEQ ID NO: 1 but unpegylated and Lysine at amino acid 26] | 106 % of vehicle only control | 126 % of vehicle only control | 113 % of vehicle only control | 142 % of vehicle only control |  |
